Measurements from the DeepSol protein solubility set.

Experiment: soluble on expression in E. coli; label from the status in PepcDB or PDB records

Sequence | soluble on expression in E. coli
MSLKWFNTLSHNRWLEQETDRIFNFGKNAVVPTGFGWLGNKGQIKEEMGTHLWITARMLHVYSVAASMGRPGAYDLVDHGIKAMNGALRDKKYGGWYACVNDQGVVDASKQGYQHFFALLGAASAVTTGHPEARKLLDYTIEVIEKYFWSEEEQMCLESWDEAFSQTEDYRGGNANMHAVEAFLIVYDVTHDKKWLDRALRIASVIIHDVARNGDYRVNEHFDSQWNPIRDYNKDNPAHRFRAYGGTPGHWIEWGRLMLHLHAALEARFETPPAWLLEDAKGLFHATIRDAWAPDGADGFVYSVDWDGKPIVRERVRWPIVEAMGTAYALYTLTDDSQYEEWYQKWWDYCIKYLMDYENGSWWQELDADNKVTTKVWDGKQDIYHLLHCLVIPRLPLAPGLAPAVAAGLLDINAKEGGSHHHHHH | soluble
MSLKWIDSHIHVDQYKDEEKSRLLKDVENSKEIQGLIAVSMNYQSSKEILSLAKRYSFVHPAVGFHPEQPIHKEECEKIYKLIEDHVEDIVAIGEVGLPYYLRKEDEHIAINSYISVLQRFVELASKYDLPIVLHAVYEDADVVCDLLEKHKVSRAHFHWFKGSETTMERMMRNGYYISITPDVLHKEKIRKIVSYYPLEYMMVETDGPWGFQEGVMTHPGMIREVLKEISVIKNVAVDKVAETIYENTIQFYLKGEGHHHHHH | soluble
MSLLGAAESTLEFYDLSHPWGHGAPAWPYFEDVQIERLHGMAKSRVLTQKITTVMHSGTHIDAPAHVVEGTPFLDEIPLSAFFGTGVVVSIPKGKWGMVTAEDLQNATPDIRPGDIVVVNTGWHHKYADSAEYYAYSPGFDKKAGEWFAAKGVKAVGTDTQALDHPLATAIAPHSPAEAQGGLLPWAVREYEAQTGRKVLDDFPDWEPCHRAILSQGIYGFENVGGDLDKVTGKRVTFAAFPWRWVGGDGCIVRLVAIVDPTGSYRIETGKAVEGHHHHHH | soluble
MSLLIKNGTIVNDDAIFKSDVLVLDGRIVEIAPSIQPTPGLEVVDATDRLVIPGGIDPHTHMQLPFMGEIAKDDFHRGTEAAVAGGTTMIIDFVIPTKGESLLVAYDRWRGWADPKVVCDYGLSMAITSWGPEIAKEMEIVTGAEYGINSFKFFLAYAGVFMVRDEEFYQGMIQCAKLRALARVHAENGSVIAERCEHLLSSGITGPEGHTQSRPEELEAEATFRACTMASQANCPLYVVHVMSKGAAAAIAHHRKKGAVVFGEPIAAGLATDGSHYYNEDWLHAARYVMSPPLSRDPSTPSALMKLLAAGELHLTATDNCTFDCQQKSLGKDDFTKIPNGVNGVEDRMSVVWDKGVHAGIIDPMRFVAVTSTMAAKIFNCYPQKGRIAVGSDADIVIWNANATRTISKDTHHHAIDFNIFEGMQVHGVPEITISRGRTVWANGQLKTVQGSGQFIPLAPDSQIVFSAVDNRKKAMEPVKIDRIPYEPSALQTPDANANIVVKAPVRAAIPPGGASSIQF | not soluble
MSLLKVREMEREDVERVYEINRESFTTDAWSRFSFEKDFENKFSRRFVLEEDGKVVGYVIFWVVKEEATIMTFAIAPGYRGKGYGEKLLREAISRLGDKVKRVVLDVRKSNLRAINLYKKLGFKVVTERKGYYSDGENALLMELKISRPSEAELSREGHHHHHH | soluble
MSLLLEPSAAMIKEQKLYREMGLTDEEFARIEAILGRLPNYTETGIFAVMWSEHCSYKNSKPVLKKFPTDGPHVLQGPGEGAGIVDIGDGLAVAFKIESHNHPSAIEPYQGAATGVGGIIRDVFSMGARPIALLNSLRFGELTSPRVKYLFEQVVAGIAGYGNCVGIPTVGGEVQFDPAYEGNPLVNAMCVGIIRHEDIQRGVATGVGNTVMYVGAKTGRDGIHGATFASEELSEQSEAKRPAVQVGDPFMEKLLLEACLEAVKSDALVGIQDMGAAGLTSSSAEMASKGGFGIEMNLDLVPQREAGMTPYEMMLSESQERMLLVVKQGCEDEIAAIFAKYGLEAKAIGKVTDDKMLRLFFRGEVAAEIPVDALAKDAPVYHKPSAEPAYYREFQAMPPYIPHIEDYNQTLLGLLAQPTIASKEWVYDQYDYMVRTNTVVAPGSDAAVVRIRGTNKALALTTDCNSRYLYLDPETGGKIAVAEAARNVVCSGAKPLAITDCLNFGSPEKPEIFWQLEKAVDGMSEACRALGTPVVSGNVSLYNETNGEAVYPTPVVGMVGLIDDLSHITTQSFKQAGDLIYVIGEAKPEFGGSELQKWLEGRIFGKAPEIDLEVEASRQRQLLAAIRAGVVASAHDIAEGGLAVALAECVMGASGLGAKVTIGGDLVSELFSETQSRFVVSVKKEQKEAFEQLVEAKQIGEVTDDGAFVVNGEHGETLIHLSVAKMRNVWKGAIPCLLKSKD | not soluble
MSLLQRDLVNTTGFLRMIMEHNYEKFASVYDAVMDDSLYDLWTDFSLRHLPKSKGRNRLLELACGTGIQSVRFAQAGFDVTGLDLSQDMLAIAKKRAQSAKKKIDFIQGNMLDLSQVGQFDFVTCYSDSICYMQDEVDVGDVFKEVYDVLANDGIFIFDVHSTYQTDECFPGYSYHENADDFAMVWDTYADEAPHSVVHELTFFIQEDDGRFSRFDEVHEERTYELLTYDILLEQAGFKSFKVYADFEDKEPTKTSKRWFFVAYKEGHHHHHH | soluble
MSLLQTKPYTFWFITGSQHLYGEDAIEQVRQHSQTMVEKLNKIGELPYTIELKEVLTTPDAIRKMVIAANSDDDCAGMITWMHTFSPAKMWINGLKQLKKPLLHLHTQFNREIPYDDIDMDFMNLNQSAHGDREYGHIGARLNISRKVIVGHWQNNDVQERLGAWMRTAAAFVDGHHLKVARFGDNMREVAVTEGDKVEAQIQFGWSITAFGIGDLVEKMKAVSEDEVRRLFDEYQELYRLSPSILEQDEVKAAVLEQAKMELALKEFLEEGGYTAFTTNFEDLHGMKQLPGLAVQRLMAEGYGFGGEGDWKTAALLRMMKIIADGKGTSFMEDYTYHLAEGNELVLGSHMLEICPTIAANQPEIQVHPLGIGGKEDPARLVFDGADGPALNASLIDLGHRFRLVVNEVEAIKPERDMPKLPVAKVLWKCKPSLSEATEAWIHAGGAHHTVFSFEVTPEQLYDWATLADIEVVFINDKTDVLQFQQQLQWNEAFRRLFKEGHHHHHH | soluble
MSLLRFGIISTAKIAQDHVIPAIQDAENCVVSAIASRDHARARAVAERFSVPHAFGSYEEMLASDVIDAVYIPLPTAQHVEWTIKAANAGKHVLCEKPIALKAEEIDTLIAARDRNGVIVSEAFMVTYSPVWAKVKELLASGAIGTLKHVQGAFSYFNRDPGNMRNIPELGGGALPDIGVYPTIVTRFATGAEPRRVQATVERDREFGTDIYSSVRADFGTFELSFYLATQLASRQLMVFHGTDGYIEVKSPFNANRWGAEEIELTNQAHNQSQVFRFQDSRQYKLEAEAFARAVRGEGEVVTLENSRKNQLFIDAIYRAAEKDGWETVEGHHHHHH | soluble
MSLLSGDETLTVYLARVLSCPELFRVSTPEEARRIAEKILSGEIEPPLEFFGLRRDAVNEVLAVTDGPAGENVAPVGLRVRGDSIVVNLYPGSRTYENFVRTEELTACIVPDPIRFLKALSKELAIETVGDGTKVAEGTRAYLELEAKEIHEGKPLTAELQVVGWGLLHPRPRALVRGESALLEALVELTRIHLDEDHVDACKRALEVVKRTIWSEEYQWAVEKVERELRGKEDGPDHQDTSPRIRRATGEGHHHHHH | soluble
MSLLTVVQDQQSSNDDSGVGRSLLDEIVRDGARQMLAAALAAEVAAYIEQFAEHLDEHGRRLVVRNGYHHERDVLTAAGAVTVTAPRVNDRRVDAETGERQRFSSAILPAWSRKSPQMTEVLPLLYLHGLSSGDFSAALEQFLGTGAGLSASKITRLTAQWQDEAKAFADRDLSGTDFVYLWVDGIHLKVRLEQQKLCLLVMIGVRADGRKELVALTDGFRESTESWADLLRSCRRRGMTAPVLAVGDEALGFWKALREVFPDTREQRCWFHKQANVLAALPKSAHPGATAAMREIYNAEDIDKAQVAIKAFEVDYGAKYPKAVAKIVDDADVLLEFYRYPAEHWIHLRTTNPIESTFATVRLRTKVTKGPGSRAAGIAMAYKLIDAAQARWRAVNAPHLVALVRAGAVFHKGKLLEREGHHHHHH | not soluble
MSLLYTTPRLNISAFLFMKQQLSFLFLLSGLLAGCSSTPNPNLEQINQFTGGKTIGDATSFYWYTESFQKPSSASDYVTSGDYGSYQTSYRWEEGQVREIRREGEHLDGKKLVPFRVHIRFSKEGEAVYQQYRLGGKVLPMNEEQLAHYVLQAKAVAEATKEQDKQGLELIQGYWNGKTFETCQGVEYQRVEFNQSLPSFVFNRLASIESYVAFLGKIRNGKVHIDELLLLDDAGHDCVKEPELLDEGHHHHHH | soluble
MSLMFHVVDDSEMLREMLVDMIEIYDCNVMTFASASEYLEYVRSDAFKAPSAVLTDVHMPQMSGYEMMEQVLAIDPSIRFAILSGEPDIPARYQDKVCLFLGKPYTGDQIQNMIYIFKQCELNSASEGHHHHHH | soluble
MSLMHTRYFTPSAQWIVQQLWPETLRFAKIEYLYPFKLRLSGVQIASEPTIELQQMDLWLNPYGLLEQQLEIDSVLIDGANLAHGLPNFTLPESVHLNQLALHNIDWADQGIIARGVSLQIKQPVWDSPQQQLPYGKIQLAADQITIDGEAFNQVLVDANYQAQDSTVYGFSFNWRNSPISGQAEQYPQGWSLINVTLSRLNLNLDEWRHHSLWQTIAPSIYHINSLDLLNSQLTLNGVAWENLNLSVEDYDLRHSLWQQQQAYLSLNADSAQWLATQWVEPSAELTLTPQGIELDGHSQVWQGDVQVKGHITETSLNLAQLTITGVKWIAEQPQDLLPFSQPLPAWQNLQIEHLDINNLQMIQTVNRPFWQASGLNADGKNLQWVKESQWGFWQGQLSVTANSASYAGVLSTQGVLNMRSEQGVWQLTRAFLPLERGYVEAHAKWDLTSLSAPWQLSLDADSLPIGPLQSWFKLPFGLEALADISLTAQGIAGDRTMLAHSLDGQLQLNLRQGLLSLRSDNTLIIQPFELDDLAVSADRGRITITPTPLRGPNLNAQLGGSTDLLEPEQGQWQLTIQQAWADQCLGLSWDFQQAELVSQDCRSAPEGHHHHHH | soluble
MSLMKCLLVSSVEGYSGKSGIIIALGLKLREMGYEVGYFKALGVNTVKVGDRAVEEDSLITAKILGVEEDVCPVVLDRPYIDFATSVDPVVLRKAVLDRFTEVSEGKDVVIVEGSQNYRTGVAVGIDDASVAKMLSAKVLLVGKYVNDFVVDEVLAAKSAFGTMLEKVVFNQVSGYKMSYIEGIARKVLNEAGLDIVGAIPRNPVLAGLSVEEIREAVSGEYLIEPREEKMVEQVVIGAMSPQSALRYLREARNAALVTGGDRSDLLLTALEMPNVRCLILTGNLEPVQLVLTKAEERGVPVILTGHDTLTAVSRLESVFGRTRIRGEPKVGIMRELFESHVNVKTIIEYLGLDEGHHHHHH | soluble
MSLMLSHNPIVEPFALAHATIVTGDKAGTILRNMTIVVGADGRIEQVAPSIETSIPAEYHYLDGTGKIVMPGLINAHTHLFSQGKPLNPKLATPKGQRMVATFAHSPLGKPYMAATVKHNATTLLESGVTTIRTLGDVGYEVVTLRDQIDAGQILGPRILASGPLMAIPEGHGAPLIALTSGTPEEARTAVAQNLKAGVNAIKIAATGGVTDAQEIGEAGSPQMSVEQMRAICDEAHQYGVIVGAHAQSPEGVRRSLLAGVDTIEHGSVLDDELIGMFRHNPNALRGYSALIPTLSAGLPLTLLGQDVTGITDIQLENSKNVVGGMVSGARQAHEAGLMIGVGTDTGMTFVPQYATWRELELLVAYAGFSPAEALHAATAVNASILGVDAETGSLEVGKSADLLVLNANPLDDLRALEHPALVIAAGHPVWRPGPKRFADIDALLDEAYAEGHHHHHH | soluble
MSLMSKPQITIKDIARELGVSPSTVSRALKDNPDISQETRDAIHKYAREHNYKPNVLALNLRTSRSNTIGVIIPQLVHHFFSCVLSGIERTAAEAGYNILVAQSNEEYEREVKIVHSFLAARVCGVITSLAKDTSRYDHYQELLDNNIPIVFYDRICTGINTERVVVDDYAGSFAAVEYMIQTGCKRIFFYSAAPHLEISKNRRNGYMDAMKKYRIPVDQSMIKLCDSREKAIAITPALLERPDHPDGFFAINDETASGILYSCKLTGRKVPDEVSICGFTDGAIAQSTDPKLTTVEQHGEEVGKSTIRLLIDKLEGNDEGKSGNKIVRTNLVVRGTTKEGHHHHHH | soluble
